Experimental data reported in article PMC3530481.

Molecular target: collagen VI tetramers from bovine cornea (bovine)
Assay: ELISA; solid-phase binding: collagen VI tetramers coated (10 ug in 100 ul TBS, overnight 4 C), recombinant WARP dimer 0-1 uM in TBS, 1 h at room temperature, detected with sheep anti-WARP serum; Scatchard analysis, apparent Kd

B1: recombinant human WARP (von Willebrand factor A-domain related protein), dimer (natural protein)
chain: ERGPPASAPRGDLMFLLDSSASVSHYEFSRVREFVGQLVAPLPLGTGALRASLVHVGSRPYTEFPFGQHSSGEAAQDAVRASAQRMGDTHTGLALVYAKEQLFAEASGARPGVPKVLVWVTDGGSSDPVGPPMQELKDLGVTVFIVSTGRGNFLELSAAASAPAEKHLHFVDVDDLHIIVQELRGSILDAMRPQQLHATEITSSGFRLAWPPLLTADSGYYVLELVPSAQPGAARRQQLPGNATDWIWAGLDPDTDYDVALVPESNVRLLRPQILRVRTRPGEAGPGASGPESGAGPAPTQLAALPAPEEAGPERIVISHARPRSLRVSWAPALGSAAALGYHVQFGPLRGGEAQRVEVPAGRNCTTLQGLAPGTAYLVTVTAAFRSGRESALSAKACTPDGPRPRPRPVPRAPTPGTASREP
Work on B1 yielded a Kd of 22 nM.
